Data as given in patent publication US20080260755A1.
Blank lines part the entries; values can stand above or below the molecule they belong to.

Experiments:
[1] = biological target: activated FIX-albumin fusion protein with cleavable linker (1088/797), activated by FXIa (human) (UniProt P00740); assay: cell-based or functional assay
[2] = biological target: activated FIX-albumin fusion protein with non-cleavable linker (980/797), activated by FXIa (human) (UniProt P00740); assay: cell-based or functional assay
[3] = tested on: FIX-albumin fusion protein with cleavable linker, construct no. 1088/797
[4] = tested on: FIX-albumin fusion protein with cleavable linker, construct no. 1089/797
[5] = tested on: FIX-albumin fusion protein with non-cleavable linker (1478/797)
[6] = biological target: FIX-albumin fusion protein with cleavable linker, construct no. 1088/797; remark: listed apart in the source
[7] = biological target: FIX-albumin fusion protein with cleavable linker, construct no. 1089/797; remark: listed apart in the source

clotting time (naPTT) after 120 min incubation with AT [1]: 540 s | clotting time (naPTT), control without incubation with AT [1]: 210 s | factor of increase in clotting time (naPTT) after 120 min incubation with AT [1]: 2.57 x | clotting time (naPTT) after 120 min incubation with AT [2]: 411 s | clotting time (naPTT), control without incubation with AT [2]: 196 s
Molecule: Antithrombin III (AT) (from UniProt P01008 33-464)

Molecule: Factor XIa (FXIa)
proteolytic cleavage in vitro, SDS-PAGE [3]: are activated and in parallel the linker is cleaved resulting in release of the albumin moiety | proteolytic cleavage in vitro, SDS-PAGE [4]: are activated and in parallel the linker is cleaved resulting in release of the albumin moiety | proteolytic cleavage in vitro, SDS-PAGE [5]: The fusion protein with non-cleavable linker did not show a corresponding release of the albumin moiety

B1: FVIIa (in the presence of tissue factor) (protein)
chain: ANAFLEELRPGSLERECKEEQCSFEEAREIFKDAERTKLFWISYSDGDQCASSPCQNGGSCKDQLQSYICFCLPAFEGRNCETHKDDQLICVNENGGCEQYCSDHTGTKRSCRCHEGYSLLADGVSCTPTVEYPCGKIPILEKRNASKPQGRIVGGKVCPKGECPWQVLLLVNGAQLCGGTLINTIWVVSAAHCFDKIKNWRNLIAVLGEHDLSEHDGDEQSRRVAQVIIPSTYVPGTTNHDIALLRLHQPVVLTDHVVPLCLPERTFSERTLAFVRFSLVSGWGQLLDRGATALELMVLNVPRLMTQDCLQQSRKVGDSPNITEYMFCAGYSDGSKDSCKGDSGGPHATHYRGTWYLTGIVSWGQGCATVGHFGVYTRVSQYIEWLQKLMRSEPRPGVLLRAPFP
proteolytic cleavage in vitro in the presence of tissue factor (data not shown) [6]: also showed release of the albumin moiety in parallel to release of the FIX activation peptide | proteolytic cleavage in vitro in the presence of tissue factor (data not shown) [7]: also showed release of the albumin moiety in parallel to release of the FIX activation peptide
